Measurements taken from patent publication US8017326B2, “Methods of modulating cell death based on the Bit-1/AES regulatory pathway” (Sanford-Burnham Medical Research Institute, priority 2002, dated 2011).

Assays:
[1] = tested on: HEK 293 cells; assay: Annexin V-FITC/propidium iodide staining of Bit1-transfected cells; type: cell-based, human
Procedure: Bit1 activity was analyzed in the human embryonic kidney cell line, HEK 293. […] Furthermore, HEK 293 cells were transfected with a Bcl-2-promoter-luciferase reporter construct together with increasing amounts of Bit1 expression construct; Bcl-2 transcription was measured by quantifying luciferase […] after 24 hours in culture. In agreement with the CHO cell results, transcription from the Bcl-2 promoter was suppressed in the Bit1-transfected HEK 293 cells (see FIG. 1B). […] In particular, the percentages of annexin V-positive cells (lower right quadrants) are about 1.4% in the control and about 4.7% in the Bit1-transfected cells.
Analysis of cell viability and apoptosis was performed as follows. Cell viability was measured by trypan blue exclusion analysis. Apoptosis was confirmed by DNA fragmentation (Oncogene; La Jolla, Calif.) thirty-six hours after transfection. Annexin-V staining (BD Biosciences Clontech; Palo Alto, Calif.) was performed according to the manufacturer's protocol.

[2] = target: T1, AES (Homo sapiens, UniProt Q08117); assay: Co-immunoprecipitation of exogenously expressed tagged Bit1 and AES; type: binding; conditions: immunoprecipitated with anti-flag, immunoblotted with anti-myc
T1 construct: expressed in transfected cells; host or cells: yeast strain AH109
T1 sequence (Q08117 1-197): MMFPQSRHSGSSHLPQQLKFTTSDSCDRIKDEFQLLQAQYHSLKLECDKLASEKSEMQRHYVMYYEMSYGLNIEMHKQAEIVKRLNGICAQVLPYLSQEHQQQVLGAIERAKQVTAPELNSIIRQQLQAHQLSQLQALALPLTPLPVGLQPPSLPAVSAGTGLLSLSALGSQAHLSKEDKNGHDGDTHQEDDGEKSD
Procedure: Tagged Bit1 and AES were transfected into cells, and cell extracts were immunoprecipitated with anti-flag and immunoblotted with anti-myc. Equal loading of the samples was confirmed by immunoblotting of the whole extract with anti-flag.
Immunoprecipitation and immunoblotting were performed essentially as follows. Cells were transfected with full-length clones for Bit1 and AES, which were obtained by PCR from EST clones using Pfu enzyme (Stratagene; La Jolla, Calif.) and cloned into pCMV-Myc (Clontech) or pCMV-flag (Sigma; St. Louis, Mo.). After 24 to 48 hours, cells were harvested in ice-cold NP-40 lysis buffer (1% NP-40; 20 mM Tris-HCl, pH 7.4; 150 mM NaCl; 10% glycerol, 2 mM sodium vanadate; 1 mM phenylmethyl sulfonylfluoride; 10 μg/ml leupeptin; and 5 μg/ml aprotinin) and lysed at 4° C. for 15 minutes. Lysates were incubated for two hours with the indicated antibodies, and the antibody complexes precipitated with 20 μl of Gammabind (Amersham-Pharmacia; Piscataway, N.J.) for an additional hour. After washing the beads, bound proteins were solubilized in SDS-PAGE sample buffer. Western blot analysis was performed according to standard procedures.

B1: Bit1: human Bit1 polypeptide of 179 residues (SEQ ID NO:2), pro-apoptotic, expressed in cells by transfection (protein, listed as Homo sapiens)
chain: MPSKSLVMEYLAHPSTLGLAVGVACGMCLGWSLRVCFGMLPKSKTSKTHTDTESEASILGDSGEYKMILVVRNDLKMGKGKVAAQCSHAAVSAYKQIQRRNPEMLKQWEYCGQPKVVVKAPDEETLIALLAHAKMLGLTVSLIQDAGRTQIAPGSQTVLGIGPGPADLIDKVTGHLKLY
- Late stage apoptosis, both annexin V and propidium iodide uptake (upper right quadrants) ([1]; Bit1-transfected HEK 293 cells versus control): 18%
- percentages of annexin V-positive cells (lower right quadrants) ([1]; Bit1-transfected HEK 293 cells, control about 1.4%): about 4.7%
- co-immunoprecipitation with AES [2]: confirmed interaction
